Where no end group is shown, it is not given here. Where only a bound is given, the exact number is not on record here.

For test [1], the target named is T1, soluble DR 8 (DRB1*0801) class II molecules purified from BM9 EBV-B cells (human), P01903.
T1 chain 1: not shown
T1 chain 2: not shown
In words: peptide competition ELISA, soluble DR 8, biotinylated indicator GYR(A)6L. Background: ELISA stands for enzyme-linked immunosorbent assay.

The target in test [2] is T2, soluble DR4 (DRB1*0401) class II molecules purified from BSM or PREISS EBV-B cells (human), P01903.
T2 chain 1: not shown
T2 chain 2: not shown
Kind of test: peptide competition ELISA, soluble DR4, biotinylated indicator GFK(A)7.

Test [3] deals with T3, soluble DR 7 (DRB1*0701) class II molecules purified from EKR EBV-B cells (human), P01903.
T3 chain 1: not shown
T3 chain 2: not shown
In words: peptide competition ELISA, soluble DR 7, biotinylated indicator GFK(A)7, pH 5.

Test [4] concerns the target T4, soluble DR 2a (DRB5*0101) molecules isolated from L cells transfectant L416.3 (human), P01903.
T4 chain 1: not shown
T4 chain 2: not shown

Test [5] has as its target T2, soluble DR4 (DRB1*0401) class II …. In words: peptide competition ELISA, soluble DR 4, biotinylated indicator UD4.
The target of test [6] is T5, soluble DR 1 (DRB1*0101) class II molecules purified from HOM-2 EBV-B cells (human), P01903.
T5 chain 1: not shown
T5 chain 2: not shown
In words: peptide competition ELISA, soluble DR 1, biotinylated indicator GFK(A)7.

In test [7] the target is soluble DR 11 (DRB1*1101) class II molecules purified from SWEIG EBV-B cells (human), P01903. In words: peptide competition ELISA, soluble DR 11, biotinylated indicator TT831-843.
Test [8] deals with T6, soluble DR 3 (DRB1*0301) class II molecules purified from WT49 EBV-B cells (human), P01903.
T6 chain 1: not shown
T6 chain 2: not shown
Kind of test: peptide competition ELISA, soluble DR 3, biotinylated indicator IAYD(A)5.

Test [9] concerns the target T7, DR molecule DRA1*0101/DRB1*0401 on transfected murine L cells (human), P01903.
T7 chain 1: not shown
T7 chain 2: not shown
In words: FACS, biotinylated peptide 100 µg/ml on DR-transfected murine L cells. Background: In flow cytometry, cells or beads pass a laser one at a time.

Test [10] has as its target T8, DR molecule DRA1*0101/DRB1*0701 on transfected murine L cells (human), P01903.
T8 chain 1: not shown
T8 chain 2: not shown
The description is as above.

What is called IC50 is the concentration that inhibits the measured activity by half. A low value points to greater potency. Take DPNANPNVDPNANPNV (modifications not checked): the IC50 in [1], in test [2], in test [3], in test [4], in [5] and in [6] was more than 100 µM throughout. Also, the 50% inhibitory concentration (IC50) in test [7] and in test [8] was more than 100 µM throughout.
With DPNANPNVDPNANPNV (not fully specified (N-terminus)) [NH2 terminal biotinylated T1 peptide], the MFC (mean fluorescence channel) was determined as 18.9 MFC in test [9] and 35.7 MFC in [10].
